Results reported in US12338291B2, “Humanized antibody molecules to CD138 and uses thereof” (VISTERRA, INC., priority 2019, dated 2025).

Tests used:
CD138+ MM1.S cells [1] = assay: Luciferase-based ADCC reporter assay against MM1.S; assay type: cell-based, human; conditions: 3-fold dilutions from 10 μg/mL, E:T 10:1, 16 h, FIG. 4
Protocol: (§1) In another experiment, the ADCC activity of the humanized variants of anti-CD138 antibody 2810 was assessed. Briefly, the humanized variant antibodies were produced by transient transfection of HEK 293 cells metabolically altered for purposes of reduced Fc fucosylation. The antibodies were then evaluated for antibody dependent cellular cytotoxicity (ADCC) activity against CD138^+ human lymphoblastic myeloma U266 cells in a luciferase based ADCC reporter assay using, as effector cells, engineered Jurkat cells stably transfected with the human FcγRIIIa receptor. U266 cells were incubated with mAbs that were 3-fold serially diluted from a starting concentration of 3 μg/mL and added to effector cells and CD138+U266 multiple myeloma target cells at a cell ratio of effector:target of 10:1. After 16-hour incubation at 37° C., luciferase activity was assessed as a measure of ADCC activity and reported as relative luminescence units (RLU). ADCC data were plotted using nonlinear regression analysis and a 4-parameter curve fit.
(§2) Second, humanized anti-CD138 antibody variants 3821, 4321, 4320, 4521, 4326, and 3820 were assessed for ADCC activity against U266, MM1.S, LP-1, and RPMI 8226 CD138^+ multiple myeloma cell lines using a luciferase based ADCC reporter assay, as described in Example 15. CD138^+ target cells were incubated with anti-CD138 antibodies that were serially diluted 3-fold starting at a concentration of 10 μg/mL, and subsequently added to FcγRIIIa effector cells at a cell ratio of effector:target cell (E:T of 10:1). After a 16 hour incubation at 37° C., cellular luciferase levels were quantified as a measure of ADCC activity and reported as relative luminescence units (RLU).

CD138+ RPMI 8226 cells [2] = assay: Antibody binding to RPMI 8226 cells by flow cytometry; set-up: species or system human; conditions: FIG. 3
Protocol: (§3) In one experiment, the humanized variants of monoclonal antibody 2810 were assessed for their capacity to bind to CD138 on the surface of cells. Briefly, the humanized variants of antibody 2810 were produced in HEK 293 cells following transient transfection. The antibodies were then serially diluted three-fold. Antibody binding to membrane CD138 was evaluated using the CD138+ human lymphoblastic myeloma cell line U266 and quantified by flow cytometry. Antibody cell binding was reported as geometric mean fluorescence intensity (MFI). Binding data were plotted using nonlinear regression analysis and a 4-parameter curve fit.
(§4) First, humanized anti-CD138 antibody variants 3821, 4321, 4320, 4521, 4326, and 3820 were evaluated for binding to three different CD138+ multiple myeloma related cell lines: MM1.S, LP-1, and RPMI 8226. Antibody binding was measured by flow cytometry as described in Example 15.

CD138+ MM1.S cells [3] = assay: Antibody binding to MM1.S cells by flow cytometry; set-up: species or system human; conditions: FIG. 3
Protocol: as §3, §4

CD138+ LP-1 cells [4] = assay: Antibody binding to LP-1 cells by flow cytometry; set-up: species or system human; conditions: FIG. 3
Protocol: as §3, §4

[5] = tested on: CD138+ human lymphoblastic myeloma U266 cells; assay: Luciferase-based ADCC reporter bioassay (Jurkat FcγRIIIa effector cells) against U266; assay type: cell-based; conditions: 3-fold dilutions from 10 μg/mL, E:T 10:1, 16 h, FIG. 4
Protocol: as §1, §2
Briefly, the two antibodies were evaluated for ADCC activity against CD138^+ human lymphoblastic myeloma U266 cells in a luciferase based ADCC reporter assay using, as effector cells, engineered Jurkat cells stably transfected with the human FcγRIIIa receptor as described in Example 1. This comparison is summarized in FIG. 9B with data normalized as fold-induction of ADCC activity relative to the minus antibody control.

CD138+ LP-1 cells [6] = assay: Luciferase-based ADCC reporter assay against LP-1; assay type: cell-based, human; conditions: 3-fold dilutions from 10 μg/mL, E:T 10:1, 16 h, FIG. 4
Protocol: as §1, §2

CD138+ RPMI 8226 cells [7] = assay: Luciferase-based ADCC reporter assay against RPMI 8226; assay type: cell-based, human; conditions: 3-fold dilutions from 10 μg/mL, E:T 10:1, 16 h, FIG. 4
Protocol: as §1, §2

[8] = Differential scanning fluorescence (DSF) thermal stability; assay type: physicochemical; conditions: PBS pH 7.4, 25-95 °C; for TM1: first thermal transition; for TM2: second thermal transition
Text: Thermal stability represents an important property of antibodies and is used as a predictive surrogate of pharmaceutical drug stability in humans based on a relative stability profile as characterized by differential thermal melting profiles. Several methods exist for evaluation of product stability based on thermal melting. These include, for example, circular dichroism (CD), differential scanning calorimetry (DSC), and differential scanning fluorescence (DSF), among others. In this example, the thermal stabilities of select humanized anti-CD138 antibodies were evaluated by DSF. DSF was used to monitor the conformational stability of a protein as it was exposed to increasing thermal stress. The dye, SYPRO Orange®, fluoresces in a hydrophobic environment, such as hydrophobic core residues that are exposed during thermally triggered protein unfolding, or denaturation. In brief, SYPRO® Orange Dye (Sigma Chemical) was diluted 1:500 in phosphate buffered saline (PBS), pH 7.4, without addition of any detergents. Antibodies were likewise diluted in PBS to a target concentration of 0.5 mg/mL. 15 μl of diluted antibody and fluorescent dye were added 1:1 (v/v) into a 96 well microtiter plate and thoroughly mixed by repeat pipetting. Thermal scans were carried out using a real-time quantitative PCR (qPCR) thermal cycler with fluorescence detection capabilities. Scans were initiated at 25° C. with incremental increase in well temperature of 1° C. ramp/minute from 25° C. to 95° C. The mid-point (Tm) between native state and the first unfolding event was reported as the transition temperature or melt temperature (TM). TMs were then calculated based on transformation of the data using the first derivative of the fluorescence signal versus time. (dfluoresence/dtime) (FIG. 7).

Protocol for MM1.S (Luc) cells: The mice (N=9 per group) were distributed to ensure that the mean whole-body tumor burden for all groups was within 10% of the overall mean whole-body tumor burden for the study population. Treatment was initiated on day 14 post tumor implant. […] Treatment in all groups was discontinued at Day 53; surviving animals were monitored for an additional 3 weeks out to Day 73 (discontinuation phase of the study).
Whole body tumor burden was monitored by bioluminescence. […] BLI was performed using an IVIS Lumina S5 (PerkinElmer, MA). Animals were imaged five at a time under 1-2% isoflurane gas anesthesia. […] Large binning of the CCD chip was used, and the exposure time was adjusted (5 seconds to 2 minutes) to obtain at least several hundred counts per image and to avoid saturation of the CCD chip Animals were imaged once weekly at staging and on days 14, 21, 29, 36, 43, 53, and 73 (end of study) for all animals remaining on study. Images were analyzed using Living Image 4.7.1 (PerkinElmer, MA) software. Whole body fixed-volume regions of interest (ROIs) were placed on prone and supine images for each individual animal and labeled based on animal identification. Total flux (photons/sec) was calculated and exported for all ROIs to facilitate analyses between groups. The prone and supine ROIs were summed together to estimate whole body tumor burden. Subject ROIs were also placed over each mouse, and region-specific ROIs were placed over spine and hindlimbs for each animal. These ROIs were then quantified independent of the whole-body ROIs in order to calculate signal from only hind limbs or spine.
Primary and secondary efficacy endpoints were generated using in vivo whole body BLI and included tumor burden assessment as described herein. Endpoints included whole body BLI ratio T/C (where T=treatment group and C=vehicle control) measured on each imaging day and reported on day 36 and tumor growth delay as measured as time to tumor burden as pre-defined as a BLI signal of 1.0×10^9 p/s. Additional efficacy endpoints included tumor regression, tumor free survival (TFS), and median life span normalized to vehicle control (% increased life span); this latter endpoint was calculated based on the first day of treatment and not the day of implant. Overall survival was calculated based on animals remaining on study.
Additional measurements included body weights (3× weekly), daily clinical observations and necropsy following euthanasia. Pre-defined euthanasia criteria were related to disease progression and included >20% loss in body weight or disease-related morbidity such as hind limb paralysis, paresthesia, or other signs of severe CNS or musculoskeletal impairment.

Molecule | Change in body weight (MM1.S (Luc) cells; FIG. 21) | Loss of weight of euthanized animal (MM1.S (Luc) cells; bortezomib single agent, day 23) [%] | Treatment related death (MM1.S (Luc) cells; bortezomib single treatment group, initially 2 mg/kg, early euthanasia day 23) [%] | Survival (animals remaining on study to end of study) (MM1.S (Luc) cells; day 73, treatment discontinued day 53) | Incidence of complete or partial regression (MM1.S (Luc) cells; end of dosing phase) | Tumor growth delay (time to BLI 1.0×10^9 p/s) (MM1.S (Luc) cells; mAb 4320 4 mg/kg, bortezomib 1 mg/kg i.p. twice weekly) [days] | Increase in life span relative to vehicle control (MM1.S (Luc) cells; mAb 4320 4 mg/kg, bortezomib 1 mg/kg i.p. twice weekly, day 14-53) [%] | Tolerability / toxicity (MM1.S (Luc) cells; mouse, in vivo) | ADCC activity (RLU) (CD138+ MM1.S cells [1]) | Antibody binding by flow cytometry (CD138+ RPMI 8226 cells [2]) | Antibody binding by flow cytometry (CD138+ MM1.S cells [3]) | Antibody binding by flow cytometry (CD138+ LP-1 cells [4]) | ADCC activity (RLU) [5] | ADCC activity (RLU) (CD138+ LP-1 cells [6]) | ADCC activity (RLU) (CD138+ RPMI 8226 cells [7]) | TM1 [8] [°C] | TM2 [8] [°C]
CC(C)C[C@H](NC(=O)[C@H](Cc1ccccc1)NC(=O)c1cnccn1)B(O)O [bortezomib, [(1R)-3-Methyl-1-[[(2S)-1-oxo-3-phenyl-2-[(pyrazinylcarbonyl)amino]propyl]amino]butyl]boronic Acid, reference compound] | Loss of body weight | −24 | 11 | none of the animals survived | None | 10.6 | 40 | treatment related toxicity was observed | – | – | – | – | – | – | – | – | –
mAb 3821: humanized anti-CD138 antibody; VH SEQ ID NO: 466, VL SEQ ID NO: 476 (antibody, V domains shown) VH: QVQLVQSGAEVKKPGSSVKVSCKASGYSFSSYYMHWVRQAPGQGLEWMGTIHPSDSTANYNQKFKGRVTITVDKSTSTAYMELSSLRSEDTAVYYCANFVYWGQGTTVTVSS VL: DIVMTQTPLSLSVTPGQPASISCKSSKSLLYKDGKTYLNWFLQKPGQSPQLLIYVVSTRASGVPDRFSGSGSGTDFTLKISRVEAEDVGVYYCQQLVQYPYTFGQGTKLEIK | – | – | – | – | – | – | – | – | induced ADCC activity | dose-dependent binding | dose-dependent binding | dose-dependent binding | induced ADCC activity | induced ADCC activity | induced ADCC activity | 69.1 | 77.7
mAb 4321: humanized anti-CD138 antibody; VH SEQ ID NO: 471, VL SEQ ID NO: 476 (antibody, V domains shown) VH: QVQLVQSGAEVKKPGASVKVSCKASGYSFSSYYMHWVRQAPGQGLEWMGTIHPSDSTTNYNQKFQGRVTMTVDTSTRTAYMELSSLRSEDTAVYYCANFVYWGQGTTVTVSS VL: DIVMTQTPLSLSVTPGQPASISCKSSKSLLYKDGKTYLNWFLQKPGQSPQLLIYVVSTRASGVPDRFSGSGSGTDFTLKISRVEAEDVGVYYCQQLVQYPYTFGQGTKLEIK | – | – | – | – | – | – | – | – | induced ADCC activity | dose-dependent binding | dose-dependent binding | dose-dependent binding | induced ADCC activity | induced ADCC activity | induced ADCC activity | 69.3 | 76.9
mAb 4521: humanized anti-CD138 antibody; VH SEQ ID NO: 473, VL SEQ ID NO: 476 (antibody, V domains shown) VH: QVQLVQSGAEVKKPGASVKVSCKASGYNFASYYMHWVRQAPGQGLEWMGTIHPSDSTTNYNQKFKGRVTMTVDTSTSTAYMELSSLRSEDTAVYYCANFVYWGQGTTVTVSS VL: DIVMTQTPLSLSVTPGQPASISCKSSKSLLYKDGKTYLNWFLQKPGQSPQLLIYVVSTRASGVPDRFSGSGSGTDFTLKISRVEAEDVGVYYCQQLVQYPYTFGQGTKLEIK | – | – | – | – | – | – | – | – | induced ADCC activity | dose-dependent binding | dose-dependent binding | dose-dependent binding | induced ADCC activity | induced ADCC activity | induced ADCC activity | – | –
mAb 4326: humanized anti-CD138 antibody; VH SEQ ID NO: 471, VL SEQ ID NO: 481 (antibody, V domains shown) VH: QVQLVQSGAEVKKPGASVKVSCKASGYSFSSYYMHWVRQAPGQGLEWMGTIHPSDSTTNYNQKFQGRVTMTVDTSTRTAYMELSSLRSEDTAVYYCANFVYWGQGTTVTVSS VL: DIVMTQSPDSLAVSLGERATINCKSSQSLLYKDGKTYLNWFQQKPGQPPKLLIYVVSTRASGVPDRFSGSGSGTDFTLTISSLQAEDVAVYYCQQLVEYPYTFGQGTKLEIK | – | – | – | – | – | – | – | – | induced ADCC activity | dose-dependent binding | dose-dependent binding | dose-dependent binding | induced ADCC activity | induced ADCC activity | induced ADCC activity | – | –
mAb 3820: humanized anti-CD138 antibody; VH SEQ ID NO: 466, VL SEQ ID NO: 475 (antibody, V domains shown) VH: QVQLVQSGAEVKKPGSSVKVSCKASGYSFSSYYMHWVRQAPGQGLEWMGTIHPSDSTANYNQKFKGRVTITVDKSTSTAYMELSSLRSEDTAVYYCANFVYWGQGTTVTVSS VL: DIVMTQTPLSLSVTPGQPASISCKSSKSLLYKDGKTYLNWFLQKPGQSPQLLIYVVSTRASGVPDRFSGSGSGTDFTLKISRVEAEDVGVYYCQQLVEYPYTFGQGTKLEIK | – | – | – | – | – | – | – | – | induced ADCC activity | dose-dependent binding | dose-dependent binding | dose-dependent binding | induced ADCC activity | induced ADCC activity | induced ADCC activity | – | –
